Laboratory results reported in paper PMC8827656.
“And” between values parts separate entries of the source, which are not always exact repeats. Equal values may be shown once.

Legend:
[1] = molecular target: photosystem I (PSI) complex from FRL-acclimated Synechococcus sp. PCC 7335 (Synechococcus sp. PCC 7335 (endogenous in the cells)); assay: atomic force microscopy; thylakoid membrane patches from 20-50% sucrose gradients with 0.1% digitonin, adsorbed on mica; PeakForce mode under liquid; 10 mM Hepes pH 7.5, 100 mM KCl; oligomer assigned from heights, nearest-neighbour angles and lateral distances
[2] = molecular target: photosystem I (PSI) complex from FRL-acclimated Synechococcus sp. PCC 7335 (Synechococcus sp. PCC 7335 (endogenous in the cells)); assay: sucrose gradient sedimentation; thylakoid membranes solubilised with 1% DDM, 5-20% sucrose gradients with 0.05% DDM, 140,000g for 12-16 h at 4°C; bands assigned by position (fig. S3B), no TEM told
[3] = molecular target: photosystem I (PSI) complex from FRL-acclimated Chlorogloeopsis fritschii PCC 9212 (C. fritschii PCC 9212 (endogenous in the cells)); assay: atomic force microscopy; thylakoid membrane patches from 20-50% sucrose gradients with 0.1% digitonin, adsorbed on mica; PeakForce mode under liquid; 10 mM Hepes pH 7.5, 100 mM KCl; oligomer assigned from heights, nearest-neighbour angles and lateral distances
[4] = molecular target: photosystem I (PSI) complex from FRL-acclimated Chlorogloeopsis fritschii PCC 9212 (C. fritschii PCC 9212 (endogenous in the cells)); assay: sucrose gradient sedimentation + negative-stain TEM; thylakoid membranes solubilised with 1% DDM, 5-20% sucrose gradients with 0.05% DDM, 140,000g for 12-16 h at 4°C; bands negatively stained with uranyl acetate and imaged by TEM
[5] = molecular target: photosystem I (PSI) complex from FRL-acclimated Chroococcidiopsis thermalis PCC 7203 (C. thermalis PCC 7203 (endogenous in the cells)); assay: atomic force microscopy; thylakoid membrane patches from 20-50% sucrose gradients with 0.1% digitonin, adsorbed on mica; PeakForce mode under liquid; 10 mM Hepes pH 7.5, 100 mM KCl; oligomer assigned from heights, nearest-neighbour angles and lateral distances
[6] = molecular target: photosystem I (PSI) complex from FRL-acclimated Chroococcidiopsis thermalis PCC 7203 (C. thermalis PCC 7203 (endogenous in the cells)); assay: sucrose gradient sedimentation + negative-stain TEM; thylakoid membranes solubilised with 1% DDM, 5-20% sucrose gradients with 0.05% DDM, 140,000g for 12-16 h at 4°C; bands negatively stained with uranyl acetate and imaged by TEM
[7] = molecular target: photosystem I (PSI) complex from FRL-acclimated Chroococcidiopsis thermalis PCC 7203 (C. thermalis PCC 7203 (endogenous in the cells)); assay: native gel or EMSA; BN-PAGE; thylakoid membranes solubilised with 0.4 or 2% DDM, 4-16% NativePAGE gels
[8] = molecular target: photosystem I (PSI) complex from white-light-grown Chlorogloeopsis fritschii PCC 9212 (C. fritschii PCC 9212 (endogenous in the cells)); assay: atomic force microscopy; thylakoid membrane patches from 20-50% sucrose gradients with 0.1% digitonin, adsorbed on mica; PeakForce mode under liquid; 10 mM Hepes pH 7.5, 100 mM KCl; oligomer assigned from heights, nearest-neighbour angles and lateral distances
[9] = molecular target: photosystem I (PSI) complex from white-light-grown Chlorogloeopsis fritschii PCC 9212 (C. fritschii PCC 9212 (endogenous in the cells)); assay: sucrose gradient sedimentation + negative-stain TEM; thylakoid membranes solubilised with 1% DDM, 5-20% sucrose gradients with 0.05% DDM, 140,000g for 12-16 h at 4°C; bands negatively stained with uranyl acetate and imaged by TEM
[10] = molecular target: photosystem I (PSI) complex from white-light-grown Synechococcus sp. PCC 7335 (Synechococcus sp. PCC 7335 (endogenous in the cells)); assay: atomic force microscopy; thylakoid membrane patches from 20-50% sucrose gradients with 0.1% digitonin, adsorbed on mica; PeakForce mode under liquid; 10 mM Hepes pH 7.5, 100 mM KCl; oligomer assigned from heights, nearest-neighbour angles and lateral distances
[11] = molecular target: photosystem I (PSI) complex from white-light-grown Synechococcus sp. PCC 7335 (Synechococcus sp. PCC 7335 (endogenous in the cells)); assay: sucrose gradient sedimentation; thylakoid membranes solubilised with 1% DDM, 5-20% sucrose gradients with 0.05% DDM, 140,000g for 12-16 h at 4°C; bands assigned by position (fig. S3B), no TEM told
[12] = molecular target: photosystem I (PSI) complex from white-light-grown Synechococcus sp. PCC 7335 (Synechococcus sp. PCC 7335 (endogenous in the cells)); assay: atomic force microscopy; thylakoid membrane patches from 20-50% sucrose gradients with 0.1% digitonin, adsorbed on mica; PeakForce mode under liquid; 10 mM Hepes pH 7.5, 100 mM KCl; oligomer assigned from heights, nearest-neighbour angles and lateral distances; remark: listed apart in the source
[13] = molecular target: photosystem I (PSI) complex from white-light-grown Chroococcidiopsis thermalis PCC 7203 (C. thermalis PCC 7203 (endogenous in the cells)); assay: as above
[14] = molecular target: photosystem I (PSI) complex from white-light-grown Chroococcidiopsis thermalis PCC 7203 (C. thermalis PCC 7203 (endogenous in the cells)); assay: native gel or EMSA; BN-PAGE; thylakoid membranes solubilised with 0.4 or 2% DDM, 4-16% NativePAGE gels
[15] = molecular target: photosystem II (PSII) complex from FRL-acclimated Chroococcidiopsis thermalis PCC 7203 (C. thermalis PCC 7203 (endogenous in the cells)); assay: sucrose gradient sedimentation + negative-stain TEM; thylakoid membranes solubilised with 1% DDM, 5-20% sucrose gradients with 0.05% DDM, 140,000g for 12-16 h at 4°C; bands negatively stained with uranyl acetate and imaged by TEM

Q: Which results are given for “photosystem I (PSI) complex from FRL-acclimated Synechococcus sp. PCC 7335”?
A: stoichiometry N [1]: 3; stoichiometry N [2]: 3 and 2

Q: Which stoichiometry N [3] does the source give for “photosystem I (PSI) complex from FRL-acclimated Chlorogloeopsis fritschii PCC 9212” here?
A: 3

Q: And the stoichiometry N [4]?
A: 3

Q: Which stoichiometry N [5] does the source give for “photosystem I (PSI) complex from FRL-acclimated Chroococcidiopsis thermalis PCC 7203” here?
A: 3

Q: And the stoichiometry N [6]?
A: 3 and 2

Q: What about the stoichiometry N [7] of the same substance?
A: 3

Q: “photosystem I (PSI) complex from white-light-grown Chlorogloeopsis fritschii PCC 9212” was tested. Which stoichiometry N [8] did it give?
A: 2

Q: And the stoichiometry N [9]?
A: 4 and 2

Q: What does the source list for “photosystem I (PSI) complex from white-light-grown Synechococcus sp. PCC 7335”?
A: stoichiometry N [10]: 2; stoichiometry N [11]: 2 and 3 and 4; stoichiometry N [12]: 3

Q: For “photosystem I (PSI) complex from white-light-grown Chroococcidiopsis thermalis PCC 7203”, which stoichiometry N [13] is on record?
A: 2

Q: And the stoichiometry N [14]?
A: 2

Q: Which stoichiometry N [15] does the source give for “photosystem II (PSII) complex from FRL-acclimated Chroococcidiopsis thermalis PCC 7203” here?
A: 2
